# Earlier results, collected in patent US20150316548A1, “PROGRANULIN AS MARKER FOR AUTOIMMUNE DISORDERS” (UNIVERSITAET DES SAARLANDES, priority 2012, published 2015).
# B1: progranulin: secreted glycoprotein, precursor with N-terminal signal peptide and seven granulin motifs; SEQ ID NO: 1 (protein, listed as Homo sapiens)
# chain: MWTLVSWVALTAGLVAGTRCPDGQFCPVACCLDPGGASYSCCRPLLDKWPTTLSRHLGGPCQVDAHCSAGHSCIFTVSGTSSCCPFPEAVACGDGHHCCPRGFHCSADGRSCFQRSGNNSVGAIQCPDSQFECPDFSTCCVMVDGSWGCCPMPQASCCEDRVHCCPHGAFCDLVHTRCITPTGTHPLAKKLPAQRTNRAVALSSSVMCPDARSRCPDGSTCCELPSGKYGCCPMPNATCCSDHLHCCPQDTVCDLIQSKCLSKENATTDLLTKLPAHTVGDVKCDMEVSCPDGYTCCRLQSGAWGCCPFTQAVCCEDHIHCCPAGFTCDTQKGTCEQGPHQVPWMEKAPAHLSLPDPQALKRDVPCDNVSSCPSSDTCCQLTSGEWGCCPIPEAVCCSDHQHCCPQGYTCVAEGQCQRGSEIVAGLEKMPARRASLSHPRDIGCDQHTSCPVGQTCCPSLGGSWACCQLPHAVCCEDRQHCCPAGYTCNVKARSCEKEVVSAQPATFLARSPHVGVKDVECGEGHFCHDNQTCCRDNRQGWACCPYRQGVCCADRRHCCPAGFRCAARGTKCLRREAPRWDAPLRDPALRQLL
# modifications: misc (1)..(593) Progranulin
# What was measured:
# [1] = system: TNF-α-receptors 1 and 2; details: mouse models, versus Etanercept; cited from earlier work
# [2] = system: TNF-Tg/GRN−/− mice; details: cited from earlier work
# [3] = system: cytotoxic effects of TNF-α; details: in vitro; cited from earlier work
# [4] = progranulin, reference [1]; cited from earlier work
molecule,measurement,setting,value
B1,strength of the anti-inflammatory effect,[1],comparable to the effect of the synthetic TNF-blocker “Etanercept”
same,clinical response of spontaneous arthritis,[2],rapid clinical recovery
same,plasma levels of cartilage oligomeric matrix protein (COMP),[2],decreased
same,protection of cells from cytotoxic effects of TNF-α,[3],protected cells in vitro from cytotoxic effects of TNF-α
same,half-life,[4],about 40 h
